other: MALS molecular weight (MW) and stoichiometry N data for four substances are collected here from article PMC9410881.

One assay concerns the target Aca10 G49Y mutant. Description: SEC-MALS. Particulars: parent: 17.39. In general terms: Size exclusion chromatography separates by hydrodynamic size, large species first.
Assay [1] addresses Aca10 from Pseudomonas citronellolis (pcAca10), wild type (Pseudomonas citronellolis). Description: SEC-MALS; Superdex 200 Increase 10/300 GL, SEC buffer (20 mM Tris-HCl pH 8.0, 150 mM NaCl), 0.5 ml/min, 20°C; self-association of Aca10.
In the next assay the target is Aca10 D7K variant. Description: SEC-MALS. The conditions noted are these: parent: 17.39.
For a further assay, the target named is Aca10 E52R mutant. Put plainly: SEC-MALS. The conditions noted are these: parent: 17.39.

On to “Aca10 from Pseudomonas citronellolis (pcAca10), wild type G49Y”, for which the other: MALS molecular weight (MW) with Aca10 G49Y mutant amounted to 10.2 kDa. In general, stoichiometry N refers to the number of molecules, sites or subunits per partner or assembly. Turning to “Aca10 from Pseudomonas citronellolis (pcAca10), wild type (natural protein)”, in assay [1], the stoichiometry N was found to be 2.

Take “Aca10 from Pseudomonas citronellolis (pcAca10), wild type D7K”: the other: MALS molecular weight (MW) with Aca10 D7K variant is 17 kDa. Regarding “Aca10 from Pseudomonas citronellolis (pcAca10), wild type E52R”, the other: MALS molecular weight (MW) in the assay with Aca10 E52R mutant is 14.2 kDa.
